{"source": "patent US11447566B2", "about": "“Anti-tissue factor antibodies, antibody-drug conjugates, and related methods” (Iconic Therapeutics, Inc., priority 2018, dated 2022)", "key": {"[1]": {"biological_target": "T1, human, rat and chimeric human-rat TF constructs expressed on HEK293 cells (Homo sapiens, UniProt P13726, S192D)", "T1 construct": "expressed in transfected cells; host or cells: HEK293", "assay": "Live cell staining assay on chimeric TF constructs (epitope binning)", "assay_type": "cell-based", "conditions": "construct h159-219_r (27), human segment replaced by rat segment", "description": "(§1) To establish binding of the anti-human TF antibodies to the various TF constructs, HEK293 cells were transfected with a DNA plasmid that co-expresses the TF construct and a green fluorescent protein marker. […] Two days after transfection, cells were collected from the tissue culture plate, stained with 15 μg/ml of the indicated anti-TF antibody, washed, stained with anti-human IgG-Fc Alexa Fluor 647 polyclonal antibody, washed, and stained with the viability dye 4′,6-Diamidino-2-Phenylindole, Dihydrochloride. Upon acquisition of 80,000 live events on a flow cytometer, live cells marked with the fluorescent marker were analyzed for the degree of staining by the anti-TF antibody. […] As used herein, the term “live cell staining assay” refers to the antibody binding assay used in this example.\n(§2) When “Percentage antibody binding to TF construct relative to hTF” in Tables 51 and 52 was less than 50%, the antibody was considered a non-binder (0) in Tables 53 and 54.\n(§3) Each antibody was assigned to an epitope bin in Table 55 based on the combination of unbound constructs from Table 53."}, "[2]": {"biological_target": "T2, human, rat and chimeric human-rat TF constructs expressed on HEK293 cells (Homo sapiens, UniProt P13726, D212E/E215V/N216S/S220F/V221A)", "T2 construct": "expressed in transfected cells; host or cells: HEK293", "assay": "Live cell staining assay on chimeric TF constructs (epitope binning)", "assay_type": "cell-based", "conditions": "construct h175-189_r (5), human segment replaced by rat segment", "description": "as §1, §2, §3"}, "[3]": {"biological_target": "T3, human, rat and chimeric human-rat TF constructs expressed on HEK293 cells (Homo sapiens, UniProt P13726, N203H/T229K)", "T3 construct": "expressed in transfected cells; host or cells: HEK293", "assay": "Live cell staining assay on chimeric TF constructs (epitope binning)", "assay_type": "cell-based", "conditions": "construct hTF_N171H_T197K", "description": "as §1, §2, §3"}, "[4]": {"biological_target": "T4, human, rat and chimeric human-rat TF constructs expressed on HEK293 cells (Homo sapiens, UniProt P13726, A200N/K201T/N203H)", "T4 construct": "expressed in transfected cells; host or cells: HEK293", "assay": "Live cell staining assay on chimeric TF constructs (epitope binning)", "assay_type": "cell-based", "conditions": "construct h167-174_r (3), human segment replaced by rat segment", "description": "as §1, §2, §3"}, "[5]": {"biological_target": "T5, human, rat and chimeric human-rat TF constructs expressed on HEK293 cells (Homo sapiens, UniProt P13726)", "T5 construct": "expressed in transfected cells; host or cells: HEK293", "assay": "Live cell staining assay on chimeric TF constructs (epitope binning)", "assay_type": "cell-based", "conditions": "construct hTF", "description": "as §1, §2, §3"}, "[6]": {"biological_target": "T6, human, rat and chimeric human-rat TF constructs expressed on HEK293 cells (Homo sapiens, UniProt P13726, I184G/T186I/W190R/Y188T)", "T6 construct": "expressed in transfected cells; host or cells: HEK293", "assay": "Live cell staining assay on chimeric TF constructs (epitope binning)", "assay_type": "cell-based", "conditions": "construct h152-158_r (4), human segment replaced by rat segment", "description": "as §1, §2, §3"}, "[7]": {"biological_target": "T7, human, rat and chimeric human-rat TF constructs expressed on HEK293 cells (Rattus norvegicus, UniProt P42533, A222V/D193S/E213D/F221S/G171N/G185I/H204N/I187T/K169R/N182K/N201A/Q178D/R191W/R198K/S217N/T175S/T189Y/T196S/T202K/V216E)", "T7 construct": "expressed in transfected cells; host or cells: HEK293", "assay": "Live cell staining assay on chimeric TF constructs (epitope binning)", "assay_type": "cell-based", "conditions": "construct r141-194_h, rat amino acid segment replaced by human segment (20 amino acid changes)", "description": "as §1, §2, §3"}, "[8]": {"biological_target": "T8, human, rat and chimeric human-rat TF constructs expressed on HEK293 cells (Homo sapiens, UniProt P13726, I184G/K181N/T186I/W190R/Y188T)", "T8 construct": "expressed in transfected cells; host or cells: HEK293", "assay": "Live cell staining assay on chimeric TF constructs (epitope binning)", "assay_type": "cell-based", "conditions": "construct h146-158_r (5), human segment replaced by rat segment", "description": "as §1, §2, §3"}, "[9]": {"biological_target": "T9, human, rat and chimeric human-rat TF constructs expressed on HEK293 cells (Homo sapiens, UniProt P13726, K100N)", "T9 construct": "expressed in transfected cells; host or cells: HEK293", "assay": "Live cell staining assay on chimeric TF constructs (epitope binning)", "assay_type": "cell-based", "conditions": "construct hTF_K68N", "description": "as §1, §2, §3"}, "[10]": {"biological_target": "T10, human, rat and chimeric human-rat TF constructs expressed on HEK293 cells (Homo sapiens, UniProt P13726, K197R/S192D/S195T)", "T10 construct": "expressed in transfected cells; host or cells: HEK293", "assay": "Live cell staining assay on chimeric TF constructs (epitope binning)", "assay_type": "cell-based", "conditions": "construct h159-166_r (3), human segment replaced by rat segment", "description": "as §1, §2, §3"}, "[11]": {"biological_target": "T11, human, rat and chimeric human-rat TF constructs expressed on HEK293 cells (Rattus norvegicus, UniProt P42533)", "T11 construct": "expressed in transfected cells; host or cells: HEK293", "assay": "Live cell staining assay on chimeric TF constructs (epitope binning)", "assay_type": "cell-based", "conditions": "construct rTF", "description": "as §1, §2, §3"}, "[12]": {"biological_target": "T12, human, rat and chimeric human-rat TF constructs expressed on HEK293 cells (Homo sapiens, UniProt P13726, D177Q/N170G/R168K/S174T)", "T12 construct": "expressed in transfected cells; host or cells: HEK293", "assay": "Live cell staining assay on chimeric TF constructs (epitope binning)", "assay_type": "cell-based", "conditions": "construct h133-145_r (4), human segment replaced by rat segment", "description": "as §1, §2, §3"}, "[13]": {"system": "human, rat and chimeric human-rat TF constructs expressed on HEK293 cells", "assay": "Live cell staining assay on chimeric TF constructs (epitope binning)", "assay_type": "cell-based", "conditions": "for Antibody binding to TF construct: human segment replaced by rat segment", "description": "as §1, §2, §3"}, "[14]": {"biological_target": "T13, human, rat and chimeric human-rat TF constructs expressed on HEK293 cells (Homo sapiens, UniProt P13726, E127T/E131K/E137D/L136R/N139K/P130R/S129A/T133L/Y126F)", "T13 construct": "expressed in transfected cells; host or cells: HEK293", "assay": "Live cell staining assay on chimeric TF constructs (epitope binning)", "assay_type": "cell-based", "conditions": "construct h94-107_r (9), human segment replaced by rat segment", "description": "as §1, §2, §3"}, "[15]": {"biological_target": "T14, human, rat and chimeric human-rat TF constructs expressed on HEK293 cells (Homo sapiens, UniProt P13726, D177Q/S174T)", "T14 construct": "expressed in transfected cells; host or cells: HEK293", "assay": "Live cell staining assay on chimeric TF constructs (epitope binning)", "assay_type": "cell-based", "conditions": "construct h140-145_r (2), human segment replaced by rat segment", "description": "as §1, §2, §3"}, "[16]": {"biological_target": "T15, human TF on MDA-MB-231 cells (25A3-Alexa488 binding) (Homo sapiens, UniProt P13726)", "T15 construct": "TF-positive MDA-MB-231 cells (ATCC, Manassas, Va., USA); host or cells: MDA-MB-231", "assay": "Antibody competition assay with 25A3", "conditions": "pre-incubation with unlabeled competitor antibody", "description": "(§4) Alexa Fluor antibodies were generated using Alexa Fluor 488 5-sulfo-[…] esters (ThermoFisher Scientific) following manufacturer's protocol. Excess Alexa Fluor dye was removed from the antibody dye conjugate preparations by gel filtration (ThermoFisher Scientific).\n(§5) After another 1 hr incubation on ice, cells were washed, stained with a viability dye, and analyzed by flow cytometry. The Alexa488 fluorescence data from viable cells was summarized using median fluorescence intensity."}, "[17]": {"biological_target": "T16, human TF on MDA-MB-231 cells (39A-Alexa488 binding) (Homo sapiens, UniProt P13726)", "T16 construct": "TF-positive MDA-MB-231 cells (ATCC, Manassas, Va., USA); host or cells: MDA-MB-231", "assay": "Antibody competition assay with 39A", "conditions": "pre-incubation with unlabeled competitor antibody", "description": "as §4, §5"}}, "data": [{"substance": "TF-011 [reference compound]", "values": [{"measurement": "Antibody binding to TF construct", "setting": "[1]", "result": "1 (between 50% and 150%, the antibody was considered a binder (1))"}, {"measurement": "Antibody binding to TF construct", "setting": "[2]", "result": "1 (between 50% and 150%, the antibody was considered a binder (1))"}, {"measurement": "Antibody binding to TF construct", "setting": "[3]", "result": "1 (between 50% and 150%, the antibody was considered a binder (1))"}, {"measurement": "Antibody binding to TF construct", "setting": "[4]", "result": "1 (between 50% and 150%, the antibody was considered a binder (1))"}, {"measurement": "Antibody binding to TF construct", "setting": "[5]; Table 54", "result": "1 (between 50% and 150%, the antibody was considered a binder (1))"}, {"measurement": "Antibody binding to TF construct", "setting": "[5]", "result": "1 (between 50% and 150%, the antibody was considered a binder (1))"}, {"measurement": "Antibody binding to TF construct", "setting": "[6]", "result": "1 (between 50% and 150%, the antibody was considered a binder (1))"}, {"measurement": "Antibody binding to TF construct", "setting": "[7]", "result": "0 (less than 50%, the antibody was considered a non-binder (0))"}, {"measurement": "Antibody binding to TF construct", "setting": "[8]", "result": "1 (between 50% and 150%, the antibody was considered a binder (1))"}, {"measurement": "Antibody binding to TF construct", "setting": "[9]", "result": "1 (between 50% and 150%, the antibody was considered a binder (1))"}, {"measurement": "Antibody binding to TF construct", "setting": "[10]", "result": "1 (between 50% and 150%, the antibody was considered a binder (1))"}, {"measurement": "Antibody binding to TF construct", "setting": "[11]; Table 54", "result": "0 (less than 50%, the antibody was considered a non-binder (0))"}, {"measurement": "Antibody binding to TF construct", "setting": "[11]", "result": "0 (less than 50%, the antibody was considered a non-binder (0))"}, {"measurement": "Antibody binding to TF construct", "setting": "[12]", "result": "1 (between 50% and 150%, the antibody was considered a binder (1))"}, {"measurement": "Epitope Bin", "setting": "[13]; assignment based on unbound chimeric constructs", "result": 1}, {"measurement": "Constructs not bound by antibody", "setting": "[13]; chimeric human-rat TF constructs of Table 53", "result": "rTF, h1-107_r, h1-77_r, h39-77_r, h78-107_r, h78-107_r.v2, h94-107_r"}, {"measurement": "Antibody binding to TF construct", "setting": "[13]; construct h1-38_r (14)", "result": "1 (between 50% and 150%, the antibody was considered a binder (1))"}, {"measurement": "Antibody binding to TF construct", "setting": "[13]; construct h1-77_r (25)", "result": "0 (less than 50%, the antibody was considered a non-binder (0))"}, {"measurement": "Antibody binding to TF construct", "setting": "[13]; construct h1-107_r (52)", "result": "0 (less than 50%, the antibody was considered a non-binder (0))"}, {"measurement": "Antibody binding to TF construct", "setting": "[13]; construct h78-93_r (18)", "result": "1 (between 50% and 150%, the antibody was considered a binder (1))"}, {"measurement": "Antibody binding to TF construct", "setting": "[13]; construct h78-107_r.v2 (27)", "result": "0 (less than 50%, the antibody was considered a non-binder (0))"}, {"measurement": "Antibody binding to TF construct", "setting": "[14]", "result": "0 (less than 50%, the antibody was considered a non-binder (0))"}, {"measurement": "Antibody binding to TF construct", "setting": "[15]", "result": "1 (between 50% and 150%, the antibody was considered a binder (1))"}, {"measurement": "% 25A3 binding", "setting": "[16]", "result": "did not reduce"}, {"measurement": "% 39A binding", "setting": "[17]", "result": "reduced"}]}]}
